This assay addresses T4 glycoprotein (human T cell surface protein T4) (human) (UniProt P01730). The assay is described as follows: cell-based or functional assay.

Here are results for one substance from patent US6673896.

Turning to OKT4A monoclonal antibody, the VSV PSEUDOTYPE TITER, VSV(AIDS) +αT4A, CEM(T4+) cells came out at 200 PFU/ml; the VSV PSEUDOTYPE TITER, VSV(AIDS) +αT4A, HSB2-T4+ cells was found to be 300 PFU/ml; the VSV PSEUDOTYPE TITER, VSV(AIDS) +αT4A, HeLa-T4+ cells was 200 PFU/ml; the VSV PSEUDOTYPE TITER, VSV(AIDS) +αT4A, Raji-T4+ cells was 150 PFU/ml.
